Measurements from US20180155451A1 (published 2018).

T1: FcγRIIb extracellular domain with C-terminal His tag (human, UniProt P31994 43-217)
T1 construct: extracellular domain; also called FcgRIIb; 2b; not shown: His tag at the C terminus
T1 sequence (looked up): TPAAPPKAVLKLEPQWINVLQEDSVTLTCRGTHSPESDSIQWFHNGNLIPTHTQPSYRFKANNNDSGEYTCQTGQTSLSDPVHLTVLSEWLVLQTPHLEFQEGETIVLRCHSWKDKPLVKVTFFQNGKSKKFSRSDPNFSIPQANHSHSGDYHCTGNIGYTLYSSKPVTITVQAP

B1: GpH7-A5/GpH7-B3 variant S298_02A/GpL16-k0 (antibody, human IgG1, kappa)
heavy 1: not shown
heavy 2: not shown
light: DIVMTQSPLSLPVTPGEPASISCQASESLVHSNRNTYLHWYLQKPGQSPQLLIYKVSNRFSGVPDRFSGSGSGTDFTLKISRVEAEDVGVYYCSQNTHVPPTFGQGTKVEIERTVAAPSVFIFPPSDEQLKSGTASVVCLLNNFYPREAKVQWKVDNALQSGNSQESVTEQDSKDSTYSLSSTLTLSKADYEKHKVYACEVTHQGLSSPVTKSFNRGEC
notes: position is EU numbering; also called He Ab
B2: GpH7-A5/GpH7-B3 variant I332_01G/GpL16-k0 (antibody, human IgG1, kappa)
heavy 1: not shown
heavy 2: not shown
light: B1 light
notes: as for B1
B3: GpH7-A5/GpH7-B3 variant A330_08L/GpL16-k0 (antibody, human IgG1, kappa)
heavy 1: not shown
heavy 2: not shown
light: B1 light
notes: as for B1
B4: GpH7-A5/GpH7-B3 variant A330_04F/GpL16-k0 (antibody, human IgG1, kappa)
heavy 1: not shown
heavy 2: not shown
light: B1 light
notes: as for B1
B5: GpH7-A5/GpH7-B3 variant A330_10E/GpL16-k0 (antibody, human IgG1, kappa)
heavy 1: not shown
heavy 2: not shown
light: B1 light
notes: as for B1
B6: GpH7-A5/GpH7-B3 variant I332_10E/GpL16-k0 (antibody, human IgG1, kappa)
heavy 1: not shown
heavy 2: not shown
light: B1 light
notes: as for B1
B7: GpH7-A5/GpH7-B3 variant A330_06M/GpL16-k0 (antibody, human IgG1, kappa)
heavy 1: not shown
heavy 2: not shown
light: B1 light
notes: as for B1
B8: GpH7-A5/GpH7-B3 variant A330_07I/GpL16-k0 (antibody, human IgG1, kappa)
heavy 1: not shown
heavy 2: not shown
light: B1 light
notes: as for B1
B9: GpH7-A5/GpH7-B3 variant A330_20W/GpL16-k0 (antibody, human IgG1, kappa)
heavy 1: not shown
heavy 2: not shown
light: B1 light
notes: as for B1
B10: GpH7-A5/GpH7-B3 variant E333_02A/GpL16-k0 (antibody, human IgG1, kappa)
heavy 1: not shown
heavy 2: not shown
light: B1 light
notes: as for B1
B11: GpH7-A5/GpH7-B3 variant E333_01G/GpL16-k0 (antibody, human IgG1, kappa)
heavy 1: not shown
heavy 2: not shown
light: B1 light
notes: as for B1
B12: GpH7-A5/GpH7-B3 variant A330_15Y/GpL16-k0 (antibody, human IgG1, kappa)
heavy 1: not shown
heavy 2: not shown
light: B1 light
notes: as for B1
B13: GpH7-A5/GpH7-B3 variant I332_09D/GpL16-k0 (antibody, human IgG1, kappa)
heavy 1: not shown
heavy 2: not shown
light: B1 light
notes: as for B1
B14: GpH7-A5/GpH7-B3 variant I332_12R/GpL16-k0 (antibody, human IgG1, kappa)
heavy 1: not shown
heavy 2: not shown
light: B1 light
notes: as for B1
B15: GpH7-A5/GpH7-B3 variant A330_03V/GpL16-k0 (antibody, human IgG1, kappa)
heavy 1: not shown
heavy 2: not shown
light: B1 light
notes: as for B1
B16: GpH7-A5/GpH7-B3 variant A327_11K/GpL16-k0 (antibody, human IgG1, kappa)
heavy 1: not shown
heavy 2: not shown
light: B1 light
notes: as for B1
B17: GpH7-A5/GpH7-B3 variant E333_16H/GpL16-k0 (antibody, human IgG1, kappa)
heavy 1: not shown
heavy 2: not shown
light: B1 light
notes: as for B1
B18: GpH7-A5/GpH7-B3 variant E333_13S/GpL16-k0 (antibody, human IgG1, kappa)
heavy 1: not shown
heavy 2: not shown
light: B1 light
notes: as for B1
B19: GpH7-A5/GpH7-B3 variant (Y300_20W)/GpL16-k0 (antibody, human IgG1, kappa)
heavy 1: not shown
heavy 2: not shown
light: B1 light
notes: Heterodimerized; only the B3 chain altered; also called He Ab Y300_20W
B20: GpH7-A5/GpH7-B3 variant (Y300_11K)/GpL16-k0 (antibody, human IgG1, kappa)
heavy 1: not shown
heavy 2: not shown
light: B1 light
notes: Heterodimerized; only the B3 chain altered; also called He Ab Y300_11K
B21: GpH7-A5/GpH7-B3 variant (T335_20W)/GpL16-k0 (antibody, human IgG1, kappa)
heavy 1: not shown
heavy 2: not shown
light: B1 light
notes: Heterodimerized; only the B3 chain altered; also called He Ab T335_20W
B22: GpH7-A5/GpH7-B3 variant (Y300_08L)/GpL16-k0 (antibody, human IgG1, kappa)
heavy 1: not shown
heavy 2: not shown
light: B1 light
notes: Heterodimerized; only the B3 chain altered; also called He Ab Y300_08L
B23: GpH7-A5/GpH7-B3 variant (Y296_12R)/GpL16-k0 (antibody, human IgG1, kappa)
heavy 1: not shown
heavy 2: not shown
light: B1 light
notes: Heterodimerized; only the B3 chain altered; also called He Ab Y296_12R
B24: GpH7-A5/GpH7-B3 variant (Y300_19Q)/GpL16-k0 (antibody, human IgG1, kappa)
heavy 1: not shown
heavy 2: not shown
light: B1 light
notes: Heterodimerized; only the B3 chain altered; also called He Ab Y300_19Q
B25: GpH7-A5/GpH7-B3 variant (Y300_13S)/GpL16-k0 (antibody, human IgG1, kappa)
heavy 1: not shown
heavy 2: not shown
light: B1 light
notes: Heterodimerized; only the B3 chain altered; also called He Ab Y300_13S
B26: GpH7-A5/GpH7-B3 variant (Y296_11K)/GpL16-k0 (antibody, human IgG1, kappa)
heavy 1: not shown
heavy 2: not shown
light: B1 light
notes: Heterodimerized; only the B3 chain altered; also called He Ab Y296_11K
B27: GpH7-A5/GpH7-B3 variant (Y300_02A)/GpL16-k0 (antibody, human IgG1, kappa)
heavy 1: not shown
heavy 2: not shown
light: B1 light
notes: Heterodimerized; only the B3 chain altered; also called He Ab Y300_02A
B28: GpH7-A5/GpH7-B3 variant (Y300_06M)/GpL16-k0 (antibody, human IgG1, kappa)
heavy 1: not shown
heavy 2: not shown
light: B1 light
notes: Heterodimerized; only the B3 chain altered; also called He Ab Y300_06M
B29: GpH7-A5/GpH7-B3 variant (T335_18N)/GpL16-k0 (antibody, human IgG1, kappa)
heavy 1: not shown
heavy 2: not shown
light: B1 light
notes: Heterodimerized; only the B3 chain altered; also called He Ab T335_18N
B30: GpH7-A5/GpH7-B3 variant (Y296_06M)/GpL16-k0 (antibody, human IgG1, kappa)
heavy 1: not shown
heavy 2: not shown
light: B1 light
notes: Heterodimerized; only the B3 chain altered; also called He Ab Y296_06M
B31: GpH7-A5/GpH7-B3 variant (Y300_14T)/GpL16-k0 (antibody, human IgG1, kappa)
heavy 1: not shown
heavy 2: not shown
light: B1 light
notes: Heterodimerized; only the B3 chain altered; also called He Ab Y300_14T
B32: GpH7-A5/GpH7-B3 variant (T335_19Q)/GpL16-k0 (antibody, human IgG1, kappa)
heavy 1: not shown
heavy 2: not shown
light: B1 light
notes: Heterodimerized; only the B3 chain altered; also called He Ab T335_19Q
B33: GpH7-A5/GpH7-B3 variant (Y296_16H)/GpL16-k0 (antibody, human IgG1, kappa)
heavy 1: not shown
heavy 2: not shown
light: B1 light
notes: Heterodimerized; only the B3 chain altered; also called He Ab Y296_16H
B34: GpH7-A5/GpH7-B3 variant (T335_16H)/GpL16-k0 (antibody, human IgG1, kappa)
heavy 1: not shown
heavy 2: not shown
light: B1 light
notes: Heterodimerized; only the B3 chain altered; also called He Ab T335_16H
B35: GpH7-A5/GpH7-B3 variant (Y300_03V)/GpL16-k0 (antibody, human IgG1, kappa)
heavy 1: not shown
heavy 2: not shown
light: B1 light
notes: Heterodimerized; only the B3 chain altered; also called He Ab Y300_03V
B36: GpH7-A5/GpH7-B3 variant (Y296_20W)/GpL16-k0 (antibody, human IgG1, kappa)
heavy 1: not shown
heavy 2: not shown
light: B1 light
notes: Heterodimerized; only the B3 chain altered; also called He Ab Y296_20W

Each binder was assayed against T2, FcγRIIIa extracellular domain with C-terminal His tag (human, UniProt P08637 17-208) (assay: SPR (Biacore); ratio of He/Con_3a (FcγRIIIa) to He/Con_2b (FcγRIIb)).
T2 construct: extracellular domain; also called FcgRIIIa; 3a; not shown: His tag at the C terminus
Method: (§1) The heterodimerized antibodies He Abs in which one of the H chains was introduced with an alteration were assayed for their binding activities to each activating FcγR and inhibitory FcγR according to the method described in Example 4. […] The activating FcγRs in FIGS. 26, 27, 28, and 29 are FcγRIa, FcγRIIa (R), FcγRIIa (H), and FcγRIIIa, respectively.
(§2) Analysis of interaction between objective antibody and the FcγR was carried out using Biacore T100 (GE Healthcare). HBS-EP+ (GE Healthcare) was used as the running buffer, and the measurement temperature was set to 25° C. Chips produced by immobilizing the antigen peptide by the amine coupling method to a Series S Sencor Chip CM5 (GE Healthcare), or alternatively, chips produced by allowing preliminarily biotinylated antigen peptides to interact with and immobilize onto a Series S Sensor Chip SA (certified) (GE Healthcare) were used. Antibodies of interest were captured onto an antigen peptide-immobilized chip, and allowed to interact to each FcγR diluted with running buffer. To regenerate and repeatedly use the chip, the antibodies captured on the chip were washed off by reacting 10 mM glycine-HCl, pH 1.5.

T2 sequence (P08637 17-208): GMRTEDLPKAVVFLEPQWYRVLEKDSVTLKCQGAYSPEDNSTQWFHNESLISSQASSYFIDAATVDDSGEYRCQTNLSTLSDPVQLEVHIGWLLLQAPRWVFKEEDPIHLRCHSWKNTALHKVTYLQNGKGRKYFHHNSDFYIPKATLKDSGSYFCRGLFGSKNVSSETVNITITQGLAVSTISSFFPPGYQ

Binder | He_3a/2b (IIIa/IIb) [ratio]
B1 | 2.18
B2 | 1.27
B3 | 1.77
B4 | 1.59
B5 | 1.21
B6 | 1.63
B7 | 1.76
B8 | 1.53
B9 | 1.37
B10 | 1.26
B11 | 1.21
B12 | 1.32
B13 | 1.41
B14 | 1.55
B15 | 1.93
B16 | 2.53
B17 | 1.24
B18 | 1.26

Each binder was assayed against T3, FcγRIa extracellular domain with C-terminal His tag (human, UniProt P12314 16-292) (assay: SPR (Biacore), captured antibody, FcγRIa analyte; relative to GpH7-A5/GpH7-B3/GpL16-k0 = 100).
T3 construct: extracellular domain; Expressed in FreeStyle293 cells; used as analyte in Biacore; also called FcgRI; 1a; not shown: His tag at the C terminus
T3 sequence (P12314 16-292): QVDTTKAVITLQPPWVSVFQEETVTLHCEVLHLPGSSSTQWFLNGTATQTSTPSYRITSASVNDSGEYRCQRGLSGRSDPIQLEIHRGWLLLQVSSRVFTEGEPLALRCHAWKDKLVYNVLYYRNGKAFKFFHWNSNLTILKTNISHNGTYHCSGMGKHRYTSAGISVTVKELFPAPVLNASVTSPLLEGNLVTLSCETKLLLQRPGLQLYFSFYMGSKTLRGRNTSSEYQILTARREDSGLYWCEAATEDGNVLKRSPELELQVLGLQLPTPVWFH

Binder | He/Con_1a
B19 | 112 % of control
B20 | 107 % of control
B21 | 106 % of control
B22 | 113 % of control
B23 | 106 % of control
B24 | 112 % of control
B25 | 111 % of control
B26 | 105 % of control
B27 | 112 % of control
B28 | 112 % of control
B29 | 106 % of control
B30 | 104 % of control
B31 | 112 % of control
B32 | 105 % of control
B33 | 106 % of control
B34 | 106 % of control
B35 | 117 % of control
B36 | 111 % of control

The binders below were run against T1, FcγRIIb extracellular domain with … (assay: SPR (Biacore), antibody captured, FcγR as analyte; He Ab binding / GpH7-A5/GpH7-B3/GpL16-k0 binding x 100).
Method: as §1, §2

Binder | He/Con_2b (IIb binding)
B1 | 73.4 relative, control = 100
B2 | 87.1 relative, control = 100
B3 | 70.5 relative, control = 100
B4 | 92.8 relative, control = 100
B5 | 70.1 relative, control = 100
B6 | 142 relative, control = 100
B7 | 80.5 relative, control = 100
B8 | 67.1 relative, control = 100
B9 | 76.1 relative, control = 100
B10 | 83.8 relative, control = 100
B11 | 81.4 relative, control = 100
B12 | 95 relative, control = 100
B13 | 147 relative, control = 100
B14 | 48.9 relative, control = 100
B15 | 52.4 relative, control = 100
B16 | 12.5 relative, control = 100
B17 | 83.3 relative, control = 100
B18 | 81.8 relative, control = 100

The binders below were run against T2, FcγRIIIa extracellular domain with … in the same assay as above.
Method: as §1, §2

Binder | He/Con_3a (IIIa binding)
B1 | 160 relative, control = 100
B2 | 111 relative, control = 100
B3 | 124 relative, control = 100
B4 | 147 relative, control = 100
B5 | 84.6 relative, control = 100
B6 | 233 relative, control = 100
B7 | 142 relative, control = 100
B8 | 103 relative, control = 100
B9 | 104 relative, control = 100
B10 | 105 relative, control = 100
B11 | 98.2 relative, control = 100
B12 | 125 relative, control = 100
B13 | 207 relative, control = 100
B14 | 75.9 relative, control = 100
B15 | 101 relative, control = 100
B16 | 31.7 relative, control = 100
B17 | 103 relative, control = 100
B18 | 103 relative, control = 100
